According to US9074002B2, “PTP1B inhibitors” (Cold Spring Harbor Laboratory, priority 2009, dated 2015):

T1: PTP1B under reducing condition (purified recombinant 37 kDa wild type PTP1B, with TCEP) (human, UniProt P18031 1-321)
T1 construct: Same protein as m1 but kept reduced (2 mM TCEP); also called reduced, active PTP1B
T1 sequence: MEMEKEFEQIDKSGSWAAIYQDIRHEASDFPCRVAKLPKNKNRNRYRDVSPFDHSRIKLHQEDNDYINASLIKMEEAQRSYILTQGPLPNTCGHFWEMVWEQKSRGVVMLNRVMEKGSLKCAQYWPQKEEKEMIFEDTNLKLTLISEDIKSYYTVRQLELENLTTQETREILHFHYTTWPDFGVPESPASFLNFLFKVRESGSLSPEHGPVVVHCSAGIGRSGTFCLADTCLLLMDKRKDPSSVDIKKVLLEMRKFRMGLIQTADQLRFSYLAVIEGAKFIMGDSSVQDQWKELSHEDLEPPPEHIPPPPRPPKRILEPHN

T2: PTP1B-OX (purified recombinant 37 kDa PTP1B, reversibly oxidized with H2O2) (human, UniProt P18031 1-321, catalytic Cys 215 reversibly oxidized by H2O2 (cyclic sulphenamide form))
T2 construct: also called PTP1B-SN
T2 sequence: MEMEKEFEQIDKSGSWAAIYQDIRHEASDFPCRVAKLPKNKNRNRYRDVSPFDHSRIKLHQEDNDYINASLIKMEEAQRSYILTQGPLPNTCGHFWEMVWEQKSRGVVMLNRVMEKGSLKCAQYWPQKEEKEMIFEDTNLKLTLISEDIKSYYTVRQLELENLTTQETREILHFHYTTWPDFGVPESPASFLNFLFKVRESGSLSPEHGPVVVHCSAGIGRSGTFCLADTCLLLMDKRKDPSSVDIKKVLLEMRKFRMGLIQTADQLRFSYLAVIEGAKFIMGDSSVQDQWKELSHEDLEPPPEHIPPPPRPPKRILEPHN


Experiments:
[1] = molecular target: T1, PTP1B under reducing condition …; test: in vitro Ni-NTA pull-down of purified scFv with purified PTP1B in 2 mM TCEP, immunoblot
Description: (§1) In the in vitro binding assay, purified PTP was reversibly oxidized with […] followed by a quick buffer exchange to remove H_2O_2 (FIG. 8). Purified scFv was incubated in molar excess with PTP1B-OX or with PTP under reducing condition (with 2 mM TCEP) in binding buffer (20 mM HEPES, pH 7.4, 300 mM NaCl, 0.05% BSA, 0.05% Tween-20 and 10 mM imidazole) for 2 hours at 4° C. Ni-NTA agarose was added and incubated for one hour at 4° C. Protein complex bound to Ni-NTA agarose beads was pulled down and washed (three times, 5 minutes each, at 4° C.) with binding buffer containing 20 mM imidazole to reduce non-specific binding to the beads. The protein complex was eluted from the Ni-NTA agarose beads with 500 mM imidazole (in binding buffer, pH 7.4) for 15 minutes at 4° C. with gentle shaking. The complex was separated by SDS-PAGE and PTP1B was detected with anti-PTP1B antibody (FG6) and scFv was detected with anti-HA antibody [anti-HA (3F10)-HRP, Roche] by immunoblotting. Eight different scFvs (scFvs 20, 21, 24, 28, 45, 48, 57, and 105), expressed and purified from bacterial cultures were tested by this in vitro binding experiment.

[2] = molecular target: T2, PTP1B-OX (purified recombinant 37 kDa …); test: in vitro Ni-NTA pull-down of purified scFv with purified PTP1B-OX, immunoblot
Description: as §1

Binder	binding result [1]	binding result [2]
scFv21 (scFv) scFv: LTQPSSVSANPGGTVKITCSGSSGSYYGWYQQKSPGSAPVTVIYDNDKRPSDVPSRFSGSKSGPTATLTITGVQAEDEAVYFCGSRDNSYVGIFGAGTTLTVLGQSSRSSAVTLDESGGGLQTPGGALSLVCKASGFTFSSYDMFWVRQAPGKGLEFVAQINSAGSYTNYGSAVKGRATISRDDGQSTVRLQLNNLRAEDTGIYFCAKSASGYYYSGSDAGDIDAWGHGTEVIVSSTSGQAGQHHHHHHGAYPYDVPDYAS	no binding	no binding
scFv20 (scFv) scFv: LTQPSSVSANLGGIVEITCSGSSGSYGWYQQKSPGSAPVTVIYYNDKRPSNIPSRFSGSGSGSTNTLTIAGVRAEDEAVYYCGNEDSSGAAFGAGTTLTVLGQSSRSSAVTLDESGGGLQTPGGGLSLVCKASGFTFSDYDMFWVRQAPSKGLEFVAAITSSGTGTKYGAAVKGRATISKDNGQRTVRLQLNSLGAEDTGTYYCARSDADSTTWSAGEIDAWGHGTEVIVSSTSGQAGQHHHHHHGAYPYDVPDYAS	no binding	no binding
scFv48 (scFv) scFv: LTQPSSVSANPGETVKITCSEGGRSSYYGWYQQKAPGSAPVTVIYDSSSRPSDIPSRFSGSKSGSTGTLTITGVQAEDEAVYYCGSTDSSTSAAIFGAGTTLTVLGQSSRSSTVTLDESGGGLQTPGRALSLVCKASGFTFSSFNMGWVRQAPGKGLEYVASISSSGSYTAYGSAVKGRATISRDNGQSTVRLQLNNLRAEDTATYYCAKAAGSAYYYTAVTPAFAGSIDAWGHGTEVIVSSTSGQAGQHHHHHHGAYPYDVPDYAS	no binding	no binding
